The text below walks through data of patent publication US7026282B1, “Peptide antagonists of the human urokinase receptor and method for selecting them” (Cancerforskningsfonden AF 1989 (Fonden Til Fremme AF …, priority 1998, dated 2006).

“Also recorded” adds a separate entry of the source. Positions of bridges follow the written chain, without caps; N, C: chain ends. Non-standard residues stand in square brackets, D forms with d. Residues, ends and D or L forms follow the SMILES beside them. Chains are numbered I, II in the order given. No end group written: not given here. 1Nal = N[C@@H](Cc1cccc2ccccc12)C(=O)O; Cha = N[C@@H](CC1CCCCC1)C(=O)O; βAla = NCCC(=O)O Some results are limits rather than exact numbers.

For data set [1], the target named is cell-surface uPAR on monolayer cultures of human MDA-MB-231 breast cancer cells (Homo sapiens, UniProt Q03405). The experiment in a line: Cell binding experiments with 125I-labelled human ATF (uPA/uPAR Binding Assay). Here is the method:
The peptides were tested for their ability to inhibit binding of radio-labelled amino terminal fragment (ATF) of human uPA to monolayer cultures of human MDA-MB-231 breast cancer cells.
MDA-MB-231 BAG cells were harvested by trypsin/EDTA treatment and added to 5% FCS supplemented medium in 24 well cluster plates at a cell density of 100,000 cells per well or as indicated otherwise. For background estimation, wells without cells were included in order to measure binding of ^125I-labelled ligand to the plastic. Next day the adherent monolayers were washed twice in binding-buffer (0.1% bovine serum albumin (BSA; Fraction V, Sigma) and 5 mM Hepes in Eagles MEM supplemented with Glutamax-1, pH 7.4). Before binding experiments, the cells were subjected to acid treatment to liberate receptor-bound endogenous uPA. Each culture well was incubated for 3 min at 23° C. with 200 μL of 0.05 M glycine-HCl, 0.1 M NaCl, pH 3.0, after which 200 μL of 0.5 M Hepes, 0.1 M NaCl pH 7.5 was added to neutralize the acid buffer. The wells were then emptied and washed once with binding buffer. Various competitors diluted in binding buffer were then added to the wells, followed by a pre-incubation at 37° C. for 15 min. Finally, ^125I-labelled ligand was added to each well at a final concentration of 1 nM. […] Aliquots from the wells were finally measured for radioactivity on a γ-counter.

For data set [2], the target named is T1, neuramimidase-treated human suPAR (soluble recombinant uPAR) (Homo sapiens, UniProt Q03405).
T1 construct: A soluble recombinant variant of human uPAR (suPAR) was expressed in Chinese hamster ovary (dhfr) cells; made in house; host or cells: Chinese hamster ovary (dhfr) cells
The experiment in a line: Biacore Binding Assay (surface plasmon resonance), ligand binding to immobilised suPAR. The conditions noted are these: for koff: Biacore, 5° C., immobilised suPAR, read-out: kdiss (dissociation rate constant, off-rate). Here is the method: Association rate constants (kass), dissociation rate constants (kdiss) and equilibrium binding constants (kd) for various synthetic peptides and receptor binding derivatives of human uPA were determined by surface plasmon resonance (R. Karlsson et al. (1991) J. Immunol. Meths. 145:229–240) using a BIAcore2000™ instrument (Pharmacia Biosensor, Uppsala, Sweden). Due to the low isoelectric point of uPAR (pI≈4.5) terminal sialic acid residues were removed from its N-linked carbohydrates to facilitate chemical immobilisation on the sensor chip. This was accomplished by incubating purified suPAR (1 mg/ml in 50 mM phosphate, 150 mM NaCl, pH 7.4) with 5 μg/ml neuramimidase for 4 hours at 37° C. […] Coupling of the neuramimidase-treated suPAR to a BIAcore sensor chip was achieved by injection of 20 μg/ml suPAR in 10 mM sodium acetate pH 5.0 for 6 minutes at a flow rate of […] per minute using a carboxymethylated dextran matrix (CM5 sensor chip) preactivated with N-hydroxysuccinimide/N-ethyl-N′-[3-([…])propyl]carbodiimide according to the manufacturer's recommendations. Approximately 1,500–2,000 resonance units (RU) were immobilised by this procedure (corresponding to 1–2 ng suPAR/mrn^2).
Sensorgrams (RU versus time) were recorded (FIG. 2) at a flow rate of 10 μl per min at 5° C. using several different concentrations of the ligand (synthetic peptides, uPA, the amino-terminal fragment (ATF) of uPA, or the growth factor domain (GFD) of uPA) in the range of 10 to 1000 nM in running buffer (10 mM HEPES, 150 mM NaCl, 3 mM EDTA (pH 7.4) including 0.005% surfactant P-20). Stock solutions of peptides from combinatorial chemistry were made in DMSO (10 mg peptide/ml DMSO). The sensor chip was regenerated at the end of each run by injection of 0.1 M acetic acid, 0.5 M NaCl. Data obtained from parallel mock coupled flow cells (subjected to the coupling procedure in the presence of buffer only) served as blank sensorgrams for subtraction of changes in bulk refractive index. The sensorgrams obtained were analysed by non-linear least squares fitting using BIAevaluation 2.0 software (Pharmacia Biosensor, Uppsala, Sweden) assuming single-site association and dissociation models.
Purified human suPAR (1 mg/ml in 50 mM phosphate, 150 mM NaCl, pH 7.4) was incubated with 5 μg/ml neuramimidase for 4 hours at 37° C.
In order to couple the neuramimidase-treated suPAR to a BIAcore sensor chip, 20 μg/ml suPAR in 10 mM sodium acetate (pH 5.0) was injected for 6 minutes at a flow rate of 5 μl per minute using a carboxymethylated dextran matrix (CM5 sensor chip), thereby immobilising approximately 1,500–2,000 resonance units (RU), which correspond to 1–2 ng suPAR/mm^2. The CM5 sensor chip was preactivated with N-hydroxysuccinimide/N-ethyl-N′-[3-([…])propyl]carbodiimide in accordance with the manufacturer's recommendations.
Surface plasmon resonance sensorgrams (RU versus time) were recorded at a flow rate of 10 μl per min at 5° C. using several different concentrations of the ligand (i.e. the relevant peptide or GFD) in the range from 10 to 1000 nM in running buffer (10 mM HEPES, 150 mM NaCl, 3 mM EDTA (pH 7.4) including 0.005% surfactant P-20).
The sensor chip was regenerated at the end of each run by injection of 0.1 M acetic acid, 0.5 M NaCl.
Data from parallel mock coupled flow cells (subjected to the coupling procedure in the presence of buffer only) served as blank sensorgrams for subtraction of changes in bulk refractive index.
The obtained sensorgrams were analysed by non-linear least squares fitting using BIAevaluation 2.0 software (Pharmacia Biosensor, Uppsala, Sweden) assuming single-site ssociation and dissociation models.

The nature of data set [3]: Peptide stability in mouse serum ex vivo, read out by ATF cell-binding inhibition. The following applies: 10% mouse serum, up to 24 hours, 37° C. It is filed as in vitro ADME. Here is the method:
Mouse blood was collected from anaesthetised mice (femal nu/nu-META/Bom (Bomholtgaard, Ry, Denmark)) by cardiac puncture. The blood samples were allowed to clot for 30 min at room temperature, followed by centrifugation at 1,000×g for 10 min at 20° C., and the sera were sterile filtered using 0.8 μm/0.2 μm filters (Acrodisc PF, Gelman Science, MI) and then stored at 4° C. until use. The peptide antagonists were added to fresh pooled mouse serum at the indicated concentrations (FIG. 5) and incubated at 37° C. for different periods, between 0 hours and 24 hours. Serum incubated samples were diluted 1:10 in binding buffer (0.1% bovine serum albumin and 5 mM Hepes in Eagles MEM supplemented with Glutamax-1, pH 7.4). Subsequently, cell binding experiments in the presence of ^125I-labelled human ATF were performed in duplicates as above, by preincubating MDA-MB-231 BAG cells at 37° C. 15 min with the 1:10 diluted serum incubated samples ± peptides. In parallel, peptides diluted in binding buffer alone were included as controls.
AE118 and AE78 (for comparison) were incubated at 37° C. in the presence of 10% mouse serum for different time intervals, up to 24 hours. The incubation mixtures were tested for their ability to inhibit binding of radio-labelled human uPA amino terminal fragment (ATF) to monolayer cultures of human MDA-MB-231 breast cancer cells, as described in Example 7.

Data set [4] concerns the target soluble recombinant variant of human uPAR (suPAR) (human) (UniProt Q03405). The experiment in a line: SPR (Biacore), ligand over immobilised neuramimidase-treated human suPAR.
Data set [5] shares this target. The experiment in a line: SPR (Biacore), immobilised human suPAR.
In data set [6] the target is T2, human uPAR on the surface of human MDA-MB-231 breast cancer cells (human, UniProt Q03405 23-305).
T2 construct: whole, on cells; also called cell-surface uPAR
T2 sequence (Q03405 23-305): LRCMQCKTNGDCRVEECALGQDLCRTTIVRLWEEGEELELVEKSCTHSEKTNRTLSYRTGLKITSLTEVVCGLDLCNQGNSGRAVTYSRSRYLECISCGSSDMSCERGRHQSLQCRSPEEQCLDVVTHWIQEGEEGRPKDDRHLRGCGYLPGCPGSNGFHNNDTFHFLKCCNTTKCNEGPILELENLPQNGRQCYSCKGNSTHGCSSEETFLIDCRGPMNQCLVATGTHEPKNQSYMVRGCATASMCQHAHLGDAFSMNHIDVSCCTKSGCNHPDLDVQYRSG
The experiment in a line: competition with 1 nM ^125I-labelled human ATF for binding to MDA-MB-231 cell monolayers.
Procedure: Next day the adherent monolayers were washed twice in binding-buffer (0.1% bovine serum albumin (BSA; Fraction V, Sigma) and 5 mM Hepes in Eagles MEM supplemented with Glutamax-1, pH 7.4). Before binding experiments, the cells were subjected to acid treatment to liberate receptor-bound endogenous uPA. Each culture well was incubated for 3 min at 23° C. with 200 µL of 0.05 M glycine-HCl, 0.1 M NaCl, pH 3.0, after which 200 µL of 0.5 M Hepes, 0.1 M NaCl pH 7.5 was added to neutralize the acid buffer. The wells were then emptied and washed once with binding buffer. Various competitors diluted in binding buffer were then added to the wells, followed by a pre-incubation at 37° C. for 15 min. […] Cells were incubated at 4° C. for 60 min, and then washed three times in binding-buffer. Subsequently, the cells were lysed by addition of 1 N NaOH to the wells. Aliquots from the wells were finally measured for radioactivity on a γ-counter.

Sequence of soluble recombinant variant of human uPAR (suPAR) (human) (Q03405 23-299, change not shown): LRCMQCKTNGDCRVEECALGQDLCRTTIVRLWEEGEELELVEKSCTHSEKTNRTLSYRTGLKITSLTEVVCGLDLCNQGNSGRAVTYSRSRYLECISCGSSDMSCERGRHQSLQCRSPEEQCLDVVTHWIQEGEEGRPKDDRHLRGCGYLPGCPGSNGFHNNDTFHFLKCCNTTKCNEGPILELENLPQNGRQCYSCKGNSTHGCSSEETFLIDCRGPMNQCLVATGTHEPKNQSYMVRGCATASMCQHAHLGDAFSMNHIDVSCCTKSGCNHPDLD
Sequence of cell-surface uPAR on monolayer cultures of human MDA-MB-231 breast cancer cells (Q03405 23-305): as the sequence (Q03405 23-305) above

Consider `CC(C)C[C@H](NC(=O)[C@H](Cc1ccc(O)cc1)NC(=O)[C@@H](CCCNC(=N)N)NC(=O)[C@@H](CO)NC(=O)[C@H](Cc1ccccc1)NC(=O)[C@H](CC1CCCCC1)NC(=O)[C@@H](N)CC(=O)O)C(=O)N[C@@H](Cc1c[nH]c2ccccc12)C(=O)N[C@@H](CO)C(=O)O` [AE105, DchaFsrYLWS], for which the IC50 in data set [1] (1 nM 125I-labelled human ATF, 0.1% BSA, read-out: IC50, inhibition of the binding of ATF to MDA-MB-231 cells) is 10 nM. Besides, the “effectiveness in inhibiting radio-labelled human ATF binding to cell-surface uPAR” value in data set [1] (0.1% bovine serum albumin) is “more effective than the reference peptide AE78”. Moreover, in data set [2], the koff is 0.00021 s⁻¹. Besides, in data set [2] (compared with AE78), the “off-rate, fold slower than AE78” value is reported as 48 fold. Moreover, the Relative kdiss in data set [2] (relative to the Growth Factor Domain of uPA (GFD = 1.0)) was 1.5.

Consider `CC(C)C[C@H](NC(=O)[C@H](Cc1ccc(O)cc1)NC(=O)[C@@H](CCCNC(=N)N)NC(=O)[C@@H](CO)NC(=O)[C@H](Cc1ccccc1)NC(=O)[C@H](CC1CCCCC1)NC(=O)[C@@H](N)CC(=O)O)C(=O)N[C@@H](Cc1c[nH]c2ccccc12)C(=O)N[C@@H](CO)C(=O)NCC(=O)NCCCC[C@H](NC(=O)CNC(=O)[C@H](CO)NC(=O)[C@H](Cc1c[nH]c2ccccc12)NC(=O)[C@H](CC(C)C)NC(=O)[C@H](Cc1ccc(O)cc1)NC(=O)[C@@H](CCCNC(=N)N)NC(=O)[C@@H](CO)NC(=O)[C@H](Cc1ccccc1)NC(=O)[C@H](CC1CCCCC1)NC(=O)[C@@H](N)CC(=O)O)C(=O)O` [AE118, [DChaFsrYLWSG]2-K] (I: H-D[Cha]F[dS][dR]YLWSGK-OH / II: H-D[Cha]F[dS][dR]YLWSG; amide I:11-II:C; N-terminus and C-terminus assumed), for which the “ability to inhibit ATF binding after incubation in mouse serum (stability)” value in data set [3] is given as “only a slight reduction; also recorded: more resistant than AE78”. The koff in data set [2] amounted to 4e-05 s⁻¹.

B1: AE112 (peptide)
peptide: DFF[dS][dR]YLWS
On to B1, for which, in data set [4], the Relative kdiss (relative to GFD) stood at 12.9 and the koff was 0.00181 s⁻¹.

B2: AE118 (peptide)
peptide 1: D[Cha]F[dS][dR]YLWSGK
peptide 2: D[Cha]F[dS][dR]YLWSG
modifications: also: lactam at chain A 11 at chain B 10 to a chain's C-terminus
notes: also called [DChaFsrYLWSG]2-K; dimer AE118
Regarding B2, in data set [4], the Relative kdiss (relative to GFD) turned out to be 0.28. For the same molecule, the fold slower off-rate than the monomer AE105 in data set [5] was in the range of 5 to 7 times. Besides, in data set [6], the half-inhibitory concentration (IC50) worked out at 2 nM.

B3: AE113 (peptide)
peptide: DNF[dS][dR]YLWS
In the case of B3, the Relative kdiss (relative to GFD) in data set [4] is over 100.

B4: AE115 (peptide)
peptide: [dE][Cha]F[dS]YYLWS
As to B4, in data set [4], the Relative kdiss (relative to GFD) was determined as 11.9 and the koff turned out to be 0.00167 s⁻¹.

B5: AE114 (peptide)
peptide: D[Cha]F[dS][dR]YL[1Nal]S
In the case of B5, in data set [4], the Relative kdiss (relative to GFD) stood at 4.2 and the koff came to 0.00059 s⁻¹.

B6: AE111 (peptide)
peptide: LNF[dS]QYLWS
Regarding B6, in data set [4], the Relative kdiss (relative to GFD) was 7.5 and the koff worked out at 0.00105 s⁻¹.

B7: AE110 (peptide)
peptide: DXFSRYLWS
modifications: beta-cyclohexyl-L-alanine (Cha) at 2; D-Ser at 4
B7: in data set [4], the Relative kdiss (relative to GFD) worked out at 2 and the koff was 0.00028 s⁻¹.

B8: AE105 (peptide)
peptide: DXFSRYLWS
modifications: beta-cyclohexyl-L-alanine (Cha) at 2; D-Ser at 4; D-Arg at 5
B8: the Relative kdiss (relative to GFD) in data set [4] was 1.5. In data set [5], the fold slower off-rate than AE78 worked out at 48 fold.

B9: AE120 (peptide)
peptide 1: D[Cha]F[dS][dR]YLWSG[βAla]K
peptide 2: D[Cha]F[dS][dR]YLWSG
modifications: also: lactam at chain A 12 at chain B 10 to a chain's C-terminus
On to B9, for which the Relative kdiss (relative to GFD) in data set [4] worked out at 0.21. Also, the fold slower off-rate than the monomer AE105 in data set [5] is 5 to 7 times.

B10: Lcha (peptide)
peptide: SL[Cha]F[dS]QYLWS
B10: in data set [4], the Relative kdiss (relative to GFD) was 24.9 and the koff was found to be 0.00349 s⁻¹.

B11: AE78 (peptide)
peptide: AEPMPHSLNFSQYLWYT
notes: also called Clone 20
Consider B11, for which the Relative kdiss (relative to GFD) in data set [4] is 72.1. For the same molecule, the IC50 in data set [6] is 200 nM.
